From publication PMC11365994 (Communications Biology, 2024)

T1: falcilysin E132Q single mutant (residues 59-1193) (Plasmodium falciparum, UniProt Q76NL8 59-1193, E132Q)
T1 sequence (looked up): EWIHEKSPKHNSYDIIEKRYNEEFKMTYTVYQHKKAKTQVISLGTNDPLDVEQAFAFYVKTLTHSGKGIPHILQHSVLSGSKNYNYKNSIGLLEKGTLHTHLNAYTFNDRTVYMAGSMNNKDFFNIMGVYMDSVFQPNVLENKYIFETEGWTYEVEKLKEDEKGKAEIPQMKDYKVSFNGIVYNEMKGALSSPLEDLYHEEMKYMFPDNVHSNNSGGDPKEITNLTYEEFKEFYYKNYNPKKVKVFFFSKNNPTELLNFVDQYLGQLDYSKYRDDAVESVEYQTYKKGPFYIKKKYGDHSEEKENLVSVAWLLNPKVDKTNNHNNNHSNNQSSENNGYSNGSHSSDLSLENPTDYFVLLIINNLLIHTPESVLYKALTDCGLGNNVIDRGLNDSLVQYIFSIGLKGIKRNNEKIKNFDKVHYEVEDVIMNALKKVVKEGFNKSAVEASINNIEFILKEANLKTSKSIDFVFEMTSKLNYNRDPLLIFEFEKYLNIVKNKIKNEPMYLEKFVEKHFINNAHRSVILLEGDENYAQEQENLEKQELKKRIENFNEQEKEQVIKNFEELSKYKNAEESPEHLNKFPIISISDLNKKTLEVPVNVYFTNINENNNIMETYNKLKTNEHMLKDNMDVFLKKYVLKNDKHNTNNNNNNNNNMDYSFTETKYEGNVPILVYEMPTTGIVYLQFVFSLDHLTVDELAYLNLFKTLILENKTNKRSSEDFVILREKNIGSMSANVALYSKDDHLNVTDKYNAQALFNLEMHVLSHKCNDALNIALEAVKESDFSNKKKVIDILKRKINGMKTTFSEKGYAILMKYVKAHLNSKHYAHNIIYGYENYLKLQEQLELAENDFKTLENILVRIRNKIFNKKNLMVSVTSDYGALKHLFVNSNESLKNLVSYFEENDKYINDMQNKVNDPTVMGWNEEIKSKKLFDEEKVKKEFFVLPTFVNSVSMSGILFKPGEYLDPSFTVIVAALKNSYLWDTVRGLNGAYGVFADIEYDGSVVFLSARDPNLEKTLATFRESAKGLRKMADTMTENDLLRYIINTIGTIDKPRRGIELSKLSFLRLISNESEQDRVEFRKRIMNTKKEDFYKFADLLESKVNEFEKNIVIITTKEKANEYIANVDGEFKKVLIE

B1: hemoglobin α chain peptide (residues L34 to D47) (peptide)
peptide: LSFPTTKTYFPHFD
B2: hemoglobin β chain peptide (residues V33 to D47) (peptide)
peptide: VVYPWTQRFFESFGD

Target: T1, falcilysin E132Q single mutant …
Experiment: ITC

Row | Binder | Kd [nM]
1 | B1 | 933
2 | B2 | 499
